# B1: Forkhead box protein P2 (Homo sapiens), O15409-1 (parent)
# chain: MMQESATETISNSSMNQNGMSTLSSQLDAGSRDGRSSGDTSSEVSTVELLHLQQQQALQAARQLLLQQQTSGLKSPKSSDKQRPLQVPVSVAMMTPQVITPQQMQQILQQQVLSPQQLQALLQQQQAVMLQQQQLQEFYKKQQEQLHLQLLQQQQQQQQQQQQQQQQQQQQQQQQQQQQQQQQQQQQQQQQHPGKQAKEQQQQQQQQQQLAAQQLVFQQQLLQMQQLQQQQHLLSLQRQGLISIPPGQAALPVQSLPQAGLSPAEIQQLWKEVTGVHSMEDNGIKHGGLDLTTNNSSSTTSSNTSKASPPITHHSIVNGQSSVLSARRDSSSHEETGASHTLYGHGVCKWPGCESICEDFGQFLKHLNNEHALDDRSTAQCRVQMQVVQQLEIQLSKERERLQAMMTHLHMRPSEPKPSPKPLNLVSSVTMSKNMLETSPQSLPQTPTTPTAPVTPITQGPSVITPASVPNVGAIRRRHSDKYNIPMSSEIAPNYEFYKNADVRPPFTYATLIRQAIMESSDRQLTLNEIYSWFTRTFAYFRRNAATWKNAVRHNLSLHKCFVRVENVKGAVWTVDEVEYQKRRSQKITGSPTLVKNIPTSLGYGAALNASLQAALAESSLPLLSNPGLINNASSGLLQAVHEDLNGSLDHIDSNGNSSPGCSPQPHIHSIHVKEEPVIAEDEDCPMSLVTTANHSPELEDDREIEEEPLSEDLE
# partner: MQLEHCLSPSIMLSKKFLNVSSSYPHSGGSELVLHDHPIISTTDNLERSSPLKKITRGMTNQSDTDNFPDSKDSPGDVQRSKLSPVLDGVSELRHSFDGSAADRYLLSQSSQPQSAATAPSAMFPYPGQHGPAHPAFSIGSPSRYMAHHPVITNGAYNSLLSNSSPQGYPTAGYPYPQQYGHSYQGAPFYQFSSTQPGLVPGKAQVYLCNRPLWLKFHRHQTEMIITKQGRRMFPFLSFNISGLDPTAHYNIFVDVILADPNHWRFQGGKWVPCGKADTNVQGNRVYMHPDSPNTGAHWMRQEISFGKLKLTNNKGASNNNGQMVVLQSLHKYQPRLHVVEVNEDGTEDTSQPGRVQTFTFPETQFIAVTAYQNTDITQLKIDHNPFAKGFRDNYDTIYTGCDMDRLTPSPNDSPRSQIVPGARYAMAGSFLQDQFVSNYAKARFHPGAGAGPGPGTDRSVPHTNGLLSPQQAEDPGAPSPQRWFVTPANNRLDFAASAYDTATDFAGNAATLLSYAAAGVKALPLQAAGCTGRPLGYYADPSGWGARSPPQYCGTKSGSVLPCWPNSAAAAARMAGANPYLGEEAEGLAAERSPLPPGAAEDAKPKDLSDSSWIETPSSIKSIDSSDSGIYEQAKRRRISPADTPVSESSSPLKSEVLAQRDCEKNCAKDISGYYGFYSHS
# B2: T-box brain protein 1 (Homo sapiens), Q16650 (parent)
# chain: B1 partner
# Variants of: B1
# Conditions: with tbr1_human TBR1, Q16650
row,effect of a mutation on the interaction,Variant
1,decreasing interaction strength,R553H

# Variants of: B2
# Conditions: with FOXP2, O15409-1
row,Variant,effect of a mutation on the interaction
1,K228E,disrupting interaction strength
2,V356M,decreasing interaction strength
3,Q178E,decreasing interaction strength
4,N374H,disrupting interaction strength

# Second part, the variant after the results:
row,effect of a mutation on the interaction,Variant
1,disrupting interaction strength,Q418R
2,decreasing interaction strength,P542R

# — IntAct's records for PubMed 25232744
